From PMC10689493 (2023)
Where two headings read alike, the source gives them in different places.

B1: CC40.8 mAb (antibody, V domains shown)
VH: EVQLLESGGGLVQPGGSLRLSCAASGFTFSSYVMTWARQAPGKGLEWVSAISGTGYTYYADSVKGRFTVSRDNSKNTLFLQMSSLRAEDTAVYYCAITMAPVVWGQGTTVTVSS
VL: SYELTQPPSVSVSPGQTARITCSGDALPKRYAYWYQQKSGQAPILVIYEDKKRPSGIPERLSGSKSGTVATLTISGAQVEDEADYYCYSTDSSGNHAVFGGGTQLTVL
B2: S2P6 mAb (antibody, V domains shown)
VH: EVQLVQSGAEVKKPGASVKVSCKASGYTFTSQYMHWVRQAPGQGLEWIGIINPSGVHTSYAQKFQGRVTLTRDTSTSTLYMELSSLRSEDTAVYYCARGSPKGAFDYWGQGTLVTVSS
VL: not shown
B3: DH1057.1 mAb (antibody, V domains shown)
VH: EVQLVESGTEVKKPGASVKVSCKTSGYIFTNYYIHWVRQAPGQGLEWMGIFNPNGGGTSYAQKFQGRITLTGNTSANTGYMVLRSLTSEDTAVYYCARDPRTSGDNDGFDMWGQGTKVTVSS
VL: VLTQSPATLSLSPGERATLSCRASQSLSSYNYLAWYQQKPGQAPRLLIYAASKRATGIPARFSGSGSGTDFTLTISSLEPEDFAVYFCQQRSNRPPAWTFGQGTKVEIK

Tests used:
Assay in all cases: SPR
[1] = molecular target: S2hlx-Ex20 epitope scaffold
[2] = molecular target: S2hlx-Ex17 epitope scaffold
[3] = molecular target: S2hlx-Ex15 epitope scaffold
S2P6 mAb [4] = molecular target: B2
DH1057.1 mAb [5] = molecular target: B3
S2P6 mAb [6] = molecular target: B2; remark: listed apart in the source
DH1057.1 mAb [7] = molecular target: B3; remark: listed apart in the source
S2P6 mAb [8] = molecular target: B2; remark: listed apart in the source
DH1057.1 mAb [9] = molecular target: B3; remark: listed apart in the source
S2P6 mAb [10] = molecular target: B2; remark: listed apart in the source
CC40.8 mAb = molecular target: B1
DH1057.1 mAb [11] = molecular target: B3; remark: listed apart in the source
CC40.8iGL = molecular target: CC40.8iGL
DH1057UCA = molecular target: DH1057UCA
S2P6iGL = molecular target: S2P6iGL
S2hlx-4 epitope scaffold = molecular target: S2hlx-4 epitope scaffold
[12] = molecular target: S2hlx-15 epitope scaffold
S2hlx-14 = molecular target: S2hlx-14
S2hlx-8 = molecular target: S2hlx-8
S2hlx-1 = molecular target: S2hlx-1
S2hlx-13 = molecular target: S2hlx-13
FP-10 epitope scaffold = molecular target: FP-10 epitope scaffold
FP-2 epitope scaffold = molecular target: FP-2 epitope scaffold

| Binder | Kd [1] | koff [1] | Kd [2] | koff [2] | Kd [3] | koff [3] | Kd (S2hlx-4 epitope scaffold) | koff (S2hlx-4 epitope scaffold) | Kd [12] | koff [12] | Kd (S2hlx-14) | koff (S2hlx-14) | Kd (S2hlx-8) | koff (S2hlx-8) | Kd (S2hlx-1) | koff (S2hlx-1) | Kd (S2hlx-13) | koff (S2hlx-13) | other results |
| --- | --- | --- | --- | --- | --- | --- | --- | --- | --- | --- | --- | --- | --- | --- | --- | --- | --- | --- | --- |
| B1 | 10.6 nM | 0.011 s⁻¹ | 27.1 nM | 0.061 s⁻¹ | 3.4 nM | 0.0085 s⁻¹ | – | – | – | – | – | – | – | – | – | – | – | – | – |
| S2hlx-7 epitope scaffold (designed binder) MTSTFDRVATIIAETADIPRETITPESHAIDDLGIDELDFLDIAFAIDKAFGISLPLFKWELDVYFGSATTEQYFVLKNLAARIDELVAAKGA | – | – | – | – | – | – | – | – | – | – | – | – | – | – | – | – | – | – | koff (S2P6 mAb [4]): 0.0025 s⁻¹; koff (DH1057.1 mAb [5]): 0.0026 s⁻¹; Kd (S2P6 mAb [6]): 0.2 nM; Kd (DH1057.1 mAb [7]): 0.6 nM |
| S2hlx-Ex19 epitope scaffold (designed binder) MNLDSFKEELDDYFKEKIVKEFEKLCKELISKYEVKKPTPSPEIKKICEYLKKKHEELKDKYPEEFVKEIFKKMWEVFKKELSKQLKKLGVTNDGGEKYKIVKEDLNYLVDVIKSLEGLSDLDLNWEEIWN | – | – | – | – | – | – | – | – | – | – | – | – | – | – | – | – | – | – | Kd (S2P6 mAb [8]): 1.7 nM; Kd (DH1057.1 mAb [9]): 15.5 nM; koff (S2P6 mAb [10]): 0.00033 s⁻¹; koff (CC40.8 mAb): 0.02 s⁻¹; koff (DH1057.1 mAb [11]): 0.027 s⁻¹; Kd (CC40.8iGL): 94.1 nM; koff (CC40.8iGL): 0.028 s⁻¹; Kd (DH1057UCA): 3080 nM; koff (DH1057UCA): 0.0019 s⁻¹; Kd (S2P6iGL): 690 nM; koff (S2P6iGL): 0.0018 s⁻¹ |
| B2 | 10.7 nM | 0.00042 s⁻¹ | 29.6 nM | 0.0082 s⁻¹ | 6 nM | 0.0086 s⁻¹ | 47.7 nM | 0.00048 s⁻¹ | 0.7 nM | 0.0018 s⁻¹ | 30 nM | 0.0016 s⁻¹ | 63 nM | 0.00021 s⁻¹ | 52.8 nM | 0.0027 s⁻¹ | 83 nM | 0.0017 s⁻¹ | – |
| DH1058 mAb (antibody, V domains shown) VH: QVQLVQSGGGVVQPGRSLRLSCAASGFNFGDFGMHWVRQAPGKGLEWVAVISYEGRNKNHADSVRGRFTISRDNSRNMLYLQMNSLRRGDTAVYYCAKENRDRNYDSWSASYSDYYYGMDVWGQGTTVTVSS VL: DIVMTQSPSFLSASVGDRVTITCRASQGIDRYLAWYQQKPGSAPKLLIYAASTLQSGVPSRFSGSGSETDFTLTISSLQPDDFATYYCQQLSTYPTITFGQGTRLEIK | – | – | – | – | – | – | – | – | – | – | – | – | – | – | – | – | – | – | Kd (FP-10 epitope scaffold): 0.3 nM; koff (FP-10 epitope scaffold): 0.00068 s⁻¹; Kd (FP-2 epitope scaffold): 0.1 nM; koff (FP-2 epitope scaffold): 0.00066 s⁻¹ |
| B3 | 48.9 nM | 0.026 s⁻¹ | 12.8 nM | 0.014 s⁻¹ | 1.7 nM | 0.00037 s⁻¹ | 4480 nM | 0.037 s⁻¹ | 0.6 nM | 0.0014 s⁻¹ | 404 nM | 0.018 s⁻¹ | 175 nM | 0.0015 s⁻¹ | 353 nM | 0.0091 s⁻¹ | 176 nM | 0.0032 s⁻¹ | – |
